Measured values published in PMC11995724.

Biological target: MiaA C273A (Shigella flexneri, UniProt P59197 1-316, C273A)
Assay: EMSA (2% agarose); 10 mM Mg2+; 100 uM 10-F05; binding only slightly decreased, largely unaffected
Details: protein: recombinant; tags: N-terminal His-tag (pET28a); label: none (GelRed stain); predicted two hairpin loops

B1: tRNATrp_34-base (structured_RNA)
RNA: GUUCAAUUGGUAGAGCACCGGUCUCCAAAACCGG
binding result: binds
